Laboratory results published in patent US20240082346A1 (MAINLINE BIOSCIENCES SHANGHAI, published 2024).
Bridge positions count the residues as written; N and C are the ends. Square brackets hold non-standard residues; d marks the D form. * marks the point of attachment. 2Nal = N[C@@H](Cc1ccc2ccccc2c1)C(=O)O; Lys(iPr) = CC(C)NCCCC[C@H](N)C(=O)O; Palmitoyl = CCCCCCCCCCCCCCCC(=O)*; Lauroyl = CCCCCCCCCCCC(=O)*; hCys = N[C@@H](CCS)C(=O)O; PhAc = O=C(Cc1ccccc1)*; Bz = O=C(c1ccccc1)*; Mpa = O=C(O)CCS; iPr = CC(C)*

B1: Ac-cyclo[hCys-Tyr-Lys(iPr)-(D-Arg)-2Nal-Gly-Cys]-Lys(iPr)-Gly-NH(Et) (peptide)
peptide: Ac-[hCys]YK(iPr)[dR][2Nal]GCK(iPr)G-NHEt
modifications: disulfide 1-7; also: acetate salt
notes: Acetate salt; also called MLB-026
B2: Phenylacetyl-cyclo[hCys-Tyr-Lys(iPr)-(D-Arg)-2Nal-Gly-Cys]-Lys(iPr)-Gly-NH2 (peptide)
peptide: PhAc-[hCys]YK(iPr)[dR][2Nal]GCK(iPr)G-NH2
modifications: disulfide 1-7; also: acetate salt
notes: also called MLB-025
B3: Benzoyl-cyclo[hCys-Tyr-Lys(iPr)-(D-Arg)-2Nal-Gly-Cys]-Lys(iPr)-Gly-NH2 (peptide)
peptide: Bz-[hCys]YK(iPr)[dR][2Nal]GCK(iPr)G-NH2
modifications: disulfide 1-7; also: acetate salt
notes: Acetate salt; also called MLB-021
B4: cyclo[Mpa-Tyr-Lys(iPr)-(D-Arg)-2Nal-Gly-Cys]-Arg-Gly-(D-Phe)-Gly-NH2 (peptide)
peptide: [Mpa]YK(iPr)[dR][2Nal]GCRG[dF]G-NH2
modifications: disulfide 1-7; also: acetate salt
notes: Acetate salt; also called MLB-002
B5: cyclo[Mpa-Tyr-Arg-(D-Arg)-2Nal-Gly-Cys]-Arg-Gly-(D-Phe)-Gly-NH2 (peptide)
peptide: [Mpa]YR[dR][2Nal]GCRG[dF]G-NH2
modifications: disulfide 1-7; also: acetate salt
notes: Acetate salt; also called MLB-001
B6: Benzoyl-cyclo[hCys-Tyr-Lys(iPr)-(D-Arg)-2Nal-Gly-Cys]-Lys(iPr)-Gly-NH(Et) (peptide)
peptide: Bz-[hCys]YK(iPr)[dR][2Nal]GCK(iPr)G-NHEt
modifications: disulfide 1-7; also: acetate salt
notes: Acetate salt; also called MLB-024
B7: Ac-cyclo[hCys-Tyr-Lys(iPr)-(D-Arg)-2Nal-Gly-Cys]-Lys(iPr)-Gly-NH2 (peptide)
peptide: Ac-[hCys]YK(iPr)[dR][2Nal]GCK(iPr)G-NH2
modifications: disulfide 1-7; also: acetate salt
notes: Acetate salt; also called MLB-010
B8: cyclo[Mpa-Tyr-Lys(iPr)-(D-Arg)-2Nal-Gly-Cys]-Lys(iPr)-Gly-NH(Et) (peptide)
peptide: [Mpa]YK(iPr)[dR][2Nal]GCK(iPr)G-NHEt
modifications: disulfide 1-7; also: acetate salt
notes: Acetate salt; also called MLB-014
B9: cyclo[Mpa-Tyr-Lys(iPr)-(D-Arg)-2Nal-Gly-Cys]-Lys(iPr)-Lys(palmitoyl)-NH(Et) (peptide)
peptide: [Mpa]YK(iPr)[dR][2Nal]GCK(iPr)K(Palmitoyl)-NHEt
modifications: disulfide 1-7; also: acetate salt
notes: Acetate salt; also called MLB-029
B10: Benzoyl-cyclo[Cys-Tyr-Lys(iPr)-(D-Arg)-2Nal-Gly-Cys]-Lys(iPr)-Gly-NH2 (peptide)
peptide: Bz-CYK(iPr)[dR][2Nal]GCK(iPr)G-NH2
modifications: disulfide 1-7; also: acetate salt
notes: Acetate salt; also called MLB-023
B11: Benzoyl-cyclo[Cys-Tyr-Lys(iPr)-(D-Arg)-2Nal-Gly-hCys]-Lys(iPr)-Gly-NH2 (peptide)
peptide: Bz-CYK(iPr)[dR][2Nal]G[hCys]K(iPr)G-NH2
modifications: disulfide 1-7; also: acetate salt
notes: Acetate salt; also called MLB-022
B12: MLB-032 (compound of Example 22; structure given only as drawing CHEM-US-00015) (peptide)
peptide: Ac-CYK(iPr)[dR][2Nal]GCK(iPr)G-NH2
modifications: linker 1-7 via 1,2‑bis(methylene)benzene; also: acetate salt
notes: Acetate salt
B13: cyclo[Mpa-Tyr-Lys(iPr)-(D-Arg)-2Nal-Gly-Cys]-Lys(iPr)-Lys(lauroyl)-NH(Et) (peptide)
peptide: [Mpa]YK(iPr)[dR][2Nal]GCK(iPr)K(Lauroyl)-NHEt
modifications: disulfide 1-7; also: acetate salt
notes: Acetate salt; also called MLB-028
B14: MLB-030 (compound of Example 20; structure given only as drawing CHEM-US-00013) (peptide)
peptide: Bz-CYK(iPr)[dR][2Nal]GCK(iPr)G-NH2
modifications: linker 1-7 via 1,2‑bis(methylene)benzene; also: acetate salt
notes: Acetate salt
B15: MLB-033 (compound of Example 23; structure given only as drawing CHEM-US-00016) (peptide)
peptide: Ac-CYK(iPr)[dR][2Nal]GCK(iPr)G-NH2
modifications: linker 1-7 via 1,3‑bis(methylene)benzene; also: acetate salt
notes: Acetate salt
B16: cyclo[Mpa-Tyr-Lys(iPr)-(D-Arg)-2Nal-Gly-Cys]-Lys(iPr)-Lys(Ac)-NH(Et) (peptide)
peptide: [Mpa]YK(iPr)[dR][2Nal]GCK(iPr)K(Ac)-NHEt
modifications: disulfide 1-7; also: acetate salt
notes: Acetate salt; also called MLB-027
B17: cyclo[Mpa-Tyr-Lys(iPr)-(D-Arg)-2Nal-Gly-Cys]-(D-Arg)-Gly-(D-Phe)-Gly-NH2 (peptide)
peptide: [Mpa]YK(iPr)[dR][2Nal]GC[dR]G[dF]G-NH2
modifications: disulfide 1-7; also: acetate salt
notes: also called MLB-004
B18: cyclo[Mpa-Arg-Tyr-Arg-2Nal-Gly-Cys]-Arg-Gly-(D-Phe)-Gly-NH2 (peptide)
peptide: [Mpa]RYR[2Nal]GCRG[dF]G-NH2
modifications: disulfide 1-7; also: acetate salt
notes: Acetate salt; also called MLB-011

target: T1, Human chemokine receptor CXCR4 (human, UniProt P61073 1-352); assay: displacement of [125I]SDF-1α (0.03 nM) from membranes of Chem-1 cells expressing human CXCR4
T1 construct: whole, on cells; Membranes of Chem-1 cells expressing human CXCR4 (0.5 ug membrane protein per aliquot); also called C-X-C chemokine receptor type 4; fusin
Experimental: Human CXCR4/¹²⁵I-SDF-1α Binding Inhibition Assay: Human chemokine receptor CXCR4 expressed in Chem-1 cells were used in modified HEPES buffer pH 7.4. A 0.5 μg (Membrane protein may change from lot to lot, the concentration used were adjusted as necessary), aliquot was incubated with 0.03 nM [¹²⁵I]SDF-1α for 90 minutes at 25° C. Non-specific binding was estimated in the presence of 30 nM SDF-la. Membranes were filtered and washed, filters were then counted to determine [¹²⁵I]SDF-1α specifically bound. Compounds were screened starting at 10 μM with 11-point dilutions (Valenzuela-Fernandez A, et al. J Biol Chem. 277(18):15677, 2002).

T1 sequence (P61073 whole entry): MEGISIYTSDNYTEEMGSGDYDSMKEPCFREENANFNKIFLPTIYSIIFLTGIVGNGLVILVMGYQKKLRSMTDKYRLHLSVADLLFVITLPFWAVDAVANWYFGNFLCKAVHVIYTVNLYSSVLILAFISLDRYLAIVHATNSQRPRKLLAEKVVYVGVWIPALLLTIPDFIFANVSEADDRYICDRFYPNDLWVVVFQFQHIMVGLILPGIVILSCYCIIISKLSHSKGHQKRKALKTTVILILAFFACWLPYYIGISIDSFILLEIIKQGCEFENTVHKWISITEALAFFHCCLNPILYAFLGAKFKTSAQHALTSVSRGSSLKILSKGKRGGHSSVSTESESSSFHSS

Molecule	Binding Kb [nM]	IC50 [nM]
[Mpa]Y[Lys(iPr)][dR][2Nal]GC[Lys(iPr)]G[2Nal]G-NH2 (disulfide 1-7)	0.29	0.95
B1	0.27	0.89
B2	0.25	0.84
B3	0.13	0.42
B4	0.28	0.92
B5	7.3	24
B6	0.39	1.3
B7	0.17	0.56
B8	0.19	0.64
B9	3.2	11
B10	1	3.4
B11	0.21	0.71
B12	0.12	0.4
B13	2.5	8.2
B14	0.39	1.3
B15	0.99	3.3
B16	0.15	0.48
B17	0.21	0.7
B18	> 1000	–
